This experiment addresses T1, human renin (Homo sapiens, UniProt P00797).
T1 construct: purchased Biovision, Inc. San Francisco, CA
T1 sequence (P00797 67-406): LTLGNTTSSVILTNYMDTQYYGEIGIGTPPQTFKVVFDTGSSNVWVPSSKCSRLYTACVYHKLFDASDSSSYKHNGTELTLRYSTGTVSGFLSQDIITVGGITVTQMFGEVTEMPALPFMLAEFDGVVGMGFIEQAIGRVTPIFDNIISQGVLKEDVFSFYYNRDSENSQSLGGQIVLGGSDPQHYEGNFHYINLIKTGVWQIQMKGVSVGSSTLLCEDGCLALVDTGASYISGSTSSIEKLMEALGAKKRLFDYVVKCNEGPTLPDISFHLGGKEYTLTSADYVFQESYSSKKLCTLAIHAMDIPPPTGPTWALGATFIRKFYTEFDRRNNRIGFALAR
Nature of the experiment: Renin inhibition screening kit, kinetic fluorescence measurement of renin enzyme activity. In kind it is biochemical. Particulars: for Mean inhibitory effect on renin activity: 37° C, 60 min kinetic fluorescence; for Inhibition of renin activity (in words): 10 nM, 100 nM and 500 nM, FIG. 5. The text has this: Human hepcidin-25/LEAP-1 (hep-25, with disulfide bonds between Cys7-Cys23, Cys10-Cys13, […], and Cys14-Cys22, purity assessed by HPLC≥98.0%) was purchased from Peptides International (Peptides International Inc, Louisville, KY). N-terminal part of hepcidin, DTHFPICIF (hep-9; SEQ ID NO: 6) and DTHFP (hep-5; SEQ ID NO: 7), were synthetized by Proteogenix (Schiltigheim, France). Renin inhibition screening kit was purchased from Biovision (Biovision, Inc. San Francisco, CA). ForteBio's 96 well black plates were used in the measurements.
Hep-25, hep-9, and hep-5 were used in final sample concentrations of 10 nM, 100 nM and 500 nM to measure inhibition of renin enzyme activity. The concentrations used represent normal levels of hepcidin in human circulation. Fluorescence measurement was performed using Perkin Elmer UV/VIS Envision multimode plate reader. Excitation and emission wavelengths were 328 and 552 nm, respectively. Fluorescence was recorded every 60 s for 60 min at 37° C. Rate of renin inhibition was calculated following the manufacture's instructions.

This note sets out measurements from US20230324413A1, “RENIN-BASED ANALYSIS OF HEPCIDIN” (TAMPERE UNIVERSITY FOUNDATION SR, priority 2020, published 2023).

For “hepcidin-25: mature bioactive 25 amino acid hepcidin peptide, SEQ ID NO: 1; purchased from Peptides International”, the “Mean inhibitory effect on renin activity” value was found to be 20.4% (peptide concentration 10 nM), 29.2% (peptide concentration 100 nM) and 38.3% (peptide concentration 500 nM).
For “DTHFP [hepcidin-5, N-terminal part of hepcidin, 5 amino acids, synthetized by Proteogenix]”, the “Inhibition of renin activity (in words)” value is reported as “inhibited renin activity”. Also, the “Mean inhibitory effect on renin activity” value (peptide concentration 10 nM) was found to be 50.1%. In addition, the “Mean inhibitory effect on renin activity” value (peptide concentration 100 nM) is reported as 50.0%. Besides, the “Mean inhibitory effect on renin activity” value (peptide concentration 500 nM) came to 58.6%.
For the substance DTHFPICIF [hepcidin-9], the “Inhibition of renin activity (in words)” value is listed as “inhibited renin activity”. Moreover, the “Mean inhibitory effect on renin activity” value (peptide concentration 10 nM) is 41.25%. Besides, the “Mean inhibitory effect on renin activity” value (peptide concentration 100 nM) worked out at 41.15%. Besides, the “Mean inhibitory effect on renin activity” value (peptide concentration 500 nM) was found to be 42.65%.
